Source: paper doi:10.1101/2021.05.10.443397

Target: clamp-stabilised KoRV envelope (Env-clamp) (koala retrovirus (KoRV-A))
Experiment: SEC + other: negative-stain electron microscopy

clamp-stabilised KoRV envelope (Env-clamp)
stoichiometry N: 3
